Here are results for 3 proteins from PMC8038987, “An unusual thioredoxin system in the facultative parasite Acanthamoeba castellanii” (Cellular and Molecular Life Sciences: CMLS, 2021).

Format in all cases: biochemical, Acanthamoeba castellanii
Substrate in series [1]: NC(=O)C1=CN([C@@H]2O[C@H](COP(=O)(O)OP(=O)(O)OC[C@H]3O[C@@H](n4cnc5c(N)ncnc54)[C@H](OP(=O)(O)O)[C@@H]3O)[C@@H](O)[C@H]2O)C=CC1
The series can be described thus: GSH-dependent DTNB reduction, A412. As to conditions: 1 mM GSSG, 11 nM GR, 100 mM Tris pH 7.5. The text has this:
GSH-dependent DTNB reduction, A412 on Ac GR

Substrate in series [2]: NC(=O)C1=CN([C@@H]2O[C@H](COP(=O)(O)OP(=O)(O)OC[C@H]3O[C@@H](n4cnc5c(N)ncnc54)[C@H](OP(=O)(O)O)[C@@H]3O)[C@@H](O)[C@H]2O)C=CC1
In words: Trx-1-dependent DTNB reduction, A412. Particulars: 10 µg/ml Trx-1, 1 mM DTNB, 1 µg/ml (31 nM) TrxR-S, 100 mM potassium phosphate pH 6.8, 21-23 °C. The text has this: Trx-1-dependent DTNB reduction, A412 on Ac TrxR-S

Substrate in series [3]: C[S+]([O-])CCC(N)C(=O)O
In words: coupled NADPH oxidation via TrxR-S and Trx-1, A340. Particulars: 610 nM MsrA, 1.9 µM Trx-1, Ac TrxR-S, 0.2 mM NADPH. An excerpt: coupled NADPH oxidation via TrxR-S and Trx-1, A340 on MsrA

B1: Ac GR (Acanthamoeba castellanii str. Neff) (protein)
chain: MESAKSTYDFDLFVLGAGSGGVRASRISAKAGARVAIAEESRVGGTCVIRGCIPKKLLVYASHFSGDFEDSRNFGWSVDVKGFDWKKLIDNKDKEIDRLNGIYKNLLAGSGVKLIEGRATLVDAHTVKVGDATYTAENILVAVGSWPWVPTIPGIEHAITSNEALELQELPKHAIIVGAGYIACEFATIFSGCGAKVTQIFRKPYVLTGFDNDVQLAVMDEGKKQGINFMPSTQVTAIEKTDAGYVCQLDNGQTVTGDVVMYATGRVPNSANLGLENAGVKIDQQGAIVVDEWSRTSVPSIYAVGDITNRINLTPVALAEGHALADTLYNNLPRTADHTNVPSAVFTSPPVSCVGYTETQARQVYGEIDVYVSKFTPLRHTLSKRDEKTFMKLIVDRKTDRVVGAHMVGADAPEIIQGVAIAVKCGATKKQFDSTVGLHPSAAEEFVTMRTKRE
notes: full-length from cDNA, 454 aa, C-terminal 6xHis, expressed in Giardia lamblia WB C6, Ni-NTA; eluate also contained G. lamblia proteins
Usually Km stands for the substrate concentration at which the rate is half of its maximum. Turning to B1, in series [1], the Km is 9 µM.

B2: Ac TrxR-S (Acanthamoeba castellanii str. Neff) (protein)
chain: MESKVHRMVIVGSGPAGHTAAIYAARANLEPVMYEGWMAGGVASGGQLTTTTDVENFPGFPEGVGGIDLTDNMRKQSERFGTVIIPKTITKADLSSRPFKLWVEGEEEGEPAAQAHSLIIATGATARRLAVPGEETFWQKGVSACAVCDGALPLFRNKPLAVVGGGDSACEEASWLSKFGSKVYLIHRRDELRASKIMAQRVLSNPKIEMVWNSAVEEIYGEKLVTGLKIKNVSTGDITDLPVSGLFWAIGHVPNTQFLNGQVETDAEGYIKTTPGSTVTSVEGVFAAGDVQDKRYRQAITAAGTGCMAALDAEHWLSAHL
notes: full-length from cDNA, 321 aa, C-terminal 6xHis, pET-17b, E. coli BL21-AI, Ni-NTA
What is called Vmax is the rate approached at saturating substrate. Broadly, the kcat is the number of substrate molecules converted per active site and unit of time at saturation. With B2, in series [2], the Km amounted to 4 µM, the Vmax was 2.96 µmol/min/mg and the kcat is 1.7 s⁻¹.

B3: MsrA (Acanthamoeba castellanii str. Neff) (protein)
chain: MTETATFGAGCFWGVEKFFRKEFGSALASTEVGYAGGDKSSPTYRQVCDGDTGHAEVVKLEFKKDAVDYASLVEFFFRIHDASTVDRQGNDVGTQYRSVIFYHTPEQKKVAEEVKDKVQKEHYPRTPIVTQIVPVGQYWSAEDYHQLYLEKNPSGYCNHRLRW
notes: full-length from cDNA, 163 aa, C-terminal 6xHis, pET-17b, E. coli BL21-AI, Ni-NTA
As usually defined, the kcat/Km is the second-order rate constant that governs catalysis at low substrate concentration. B3: in series [3], the Km was 2590 µM, the Vmax was found to be 500 nmol/min/mg, the catalytic constant (kcat) was determined as 0.155 s⁻¹ and the kcat/Km amounted to 59 M⁻¹ s⁻¹.
